Measurements from the supplement of paper PMC12764529.
± gives the half width of the 95% confidence interval.

What was measured:
[1] = folding stability dG unfold from trypsin proteolysis; higher = more stable
Procedure: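 Folding stability of de novo designed mini-proteins (<80 aa, no Cys; designed by TrROS, TrMRF, ProteinMPNN and the joint model) was measured by cDNA display proteolysis with trypsin and chymotrypsin. Each protease was used at 11 concentrations in a threefold dilution series plus a no-protease condition. K50 was inferred by Bayesian fitting of sequencing counts, and dG unfold was derived against a sequence-predicted unfolded-state K50 (Tsuboyama et al. method). Sequences shown include variable-length N-terminal GS-type padding (SAGGSAGG...) inside a display construct carrying a PA tag. Rows were kept only if the AF2 dimer inter-PAE was >15, to exclude likely homo-oligomers.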

[2] = folding stability dG unfold (combined trypsin and chymotrypsin); higher = more stable
Method in brief: (§1)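 How resistant each design was to proteolysis was captured as K50, inferred by Bayesian fitting of sequencing counts. Unfolding free energy was then derived relative to a sequence-predicted unfolded-state K50 and a shared folded-state K50, per protease or combined. Digestion used trypsin and chymotrypsin at 11 threefold-diluted concentrations plus a no-protease condition, on mini-proteins under 80 residues without cysteine in a PA-tagged cDNA display construct. Designs were kept only when AlphaFold2 dimer inter-PAE was above 15.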

[3] = folding stability dG unfold from chymotrypsin proteolysis; higher = more stable
Method in brief: as §1

| Sequence | folding stability dG unfold [1] | folding stability dG unfold [2] | folding stability dG unfold [3] |
| --- | --- | --- | --- |
| AAVIPTPTAEPVKVETLSTEVSPSLFPSPAAGGPRVLRTVVTTKTTVAVQTEDAWVEVETTTTTTEVLPPES [r1_112_JUSTAS] | -0.546 ± 0.21 kcal/mol | < -1 kcal/mol |  |
| MEFTITVEYDEETNELTVTITYPGYTIEIRIDPDGRIRVEVRMDPGMSEEERKRMQELAEELAKKLEEALKS [r1_468_TrROS_Hall] | 4.33 ± 0.69 kcal/mol | > 6 kcal/mol |  |
| SAGEELLREIAKKLNLPEGAEIVKVEIKVEEKDGRLRITITITVRNKETGELKTIEIEIEIELPEEEEESAG [r5_94_TrROS_Hall] | 3.9 ± 0.27 kcal/mol | 4.01 ± 0.43 kcal/mol |  |
| SAGGANLKIDIERHPGNGNINATIKFDGEEITVPATLSDIEEIIDEIIRVKPVPYYEKDGKLKPHWASAGGS [r8_332_TrROS] | -0.781 ± 0.19 kcal/mol | < -1 kcal/mol |  |
| SAGGAVTSVSPGNGTTTVTVPISVPGSPVTLNIPTPDATLTPDPSGTVTVTLPPNGTYSITITGPRSDSAGG [r19_227_JUSTAS] | -0.688 ± 0.16 kcal/mol | < -1 kcal/mol |  |
| SAGGDPGAEKIGTKTYPVGDKELTIETYRLPDPDELKVVVTDPTDGKTTPITVSLSEPPNIPVAELLSAGGS [r16_768_JUSTAS] | -0.276 ± 0.16 kcal/mol | < -1 kcal/mol |  |
| SAGGETEVVETNASPAELAERVAEALAAGREVTVTLPDGTVLDAGPDLADLPADTPVRLEFTPAVAASAGGS [r16_31_JUSTAS] | 0.841 ± 0.032 kcal/mol | 0.257 ± 0.17 kcal/mol |  |
| SAGGFKITEVEKDEKKGYPWVSIRIPPKSTLKKLKNMPGPVRIHNPEPGQWIHMPVDDPEEFLDKLLKSAGG [r13_604_TrROS] | 0.274 ± 0.18 kcal/mol | -0.516 ± 0.94 kcal/mol |  |
| SAGGHRMDIQFDGSPDKIEEIQKKIHKKWPDYKVDDIEVNPGNPDQVTIRIEMDNGIPMNEIQEALMSAGGS [r16_180_TrROS] | -1.32 ± 0.22 kcal/mol | < -1 kcal/mol |  |
| SAGGKIREVEIEEFDPDNGWVMITFNMPPEDLDKMKPIKLPGIKDVHWDPGNDHISASMPLEEAKEASAGGS [r16_614_TrROS] | -0.121 ± 0.17 kcal/mol | -0.5 ± 0.41 kcal/mol |  |
| SAGGLDSAPPVEVKVEVEEEKTKDPNSDSEVTKYKITVTTTVGGTPIVTEEESIVYKKPDGTIIVEKKSAGG [r19_260_JUSTAS] | -0.403 ± 0.28 kcal/mol | -0.242 ± 0.96 kcal/mol |  |
| SAGGMEVVENPGGNLKIIEKEPEGPEFVKTTTTTIKTFKNPGGSTSSTITTTTTTVKISKSKNPELLSAGGS [r16_802_JUSTAS] | -0.742 ± 0.26 kcal/mol | -0.784 ± 0.3 kcal/mol |  |
| SAGGMKIRLDNGKEIEINQSPGYMSIQIRPPDDGKKREYPFPMPDGENSMEDFVNEIANHGRITEIEPSAGG [r13_579_TrROS] | 0.522 ± 0.075 kcal/mol | -0.249 ± 0.23 kcal/mol |  |
| SAGGMKTTFTITHPDAEKAREALEKAVPSDLDVEPEFTPTPDGYTTTVTVPAEHPEVAAAALAAALASAGGS [r16_43_JUSTAS] | 0.0621 ± 0.09 kcal/mol | < -1 kcal/mol |  |
| SAGGMKVEVVETPTSLQIVTTTISTEKIPFNDVTLTTVTTEVKTIPLPEKPPVGLPYFDPEGKPLLLSAGGS [r8_46_JUSTAS] | -0.0171 ± 0.07 kcal/mol | -0.424 ± 0.18 kcal/mol |  |
| SAGGMMKIKITFADGTTKEIELPEDVTEVTITYDEKTGKVTITVRLKNGETKTITIPADKITKIEIESAGGS [r16_658_TrROS_Hall] | 5.39 ± 0.7 kcal/mol | > 6 kcal/mol |  |
| SAGGMNPDNFKPVRTYTLPFDGHKIEVEVWEPPNGNPLIPIQLEDDNGKPKGPQWIPPDQIDENGKILSAGG [r13_447_TrROS] | 0.343 ± 0.091 kcal/mol | -0.213 ± 0.28 kcal/mol |  |

| Sequence | folding stability dG unfold [1] | folding stability dG unfold [2] | folding stability dG unfold [3] |
| --- | --- | --- | --- |
| SAGGMPEGDFWVRIRIPVPKYEMERDPNDPNDYKMEPEWKPKEIWLPVKSPEALDEFRENGFEIEPFSAGGS [r8_482_TrROS] | 0.251 ± 0.091 kcal/mol | -0.137 ± 0.16 kcal/mol |  |
| SAGGMSKEEARKAIENPADATYTFTITTRPSTPTPSSTTTTVTAKVTDPDAFLDAVPEGHSVTVTASSAGGS [r16_116_JUSTAS] | -0.465 ± 0.14 kcal/mol | < -1 kcal/mol |  |
| SAGGMTKPTSSPSPLDPSTPPEEWIAAIEKELPPDWRIVEPRPRPGPRLVTVLAEDPNSGKRVILRASAGGS [r16_250_JUSTAS] | -0.989 ± 0.55 kcal/mol | < -1 kcal/mol |  |
| SAGGMTTTVTVEKFPDGSVTEVTTLPNGIVLTTPLPYTKVVPVDPPDGPAVSWGPVTVTSTESVSSEASAGG [r13_236_JUSTAS] | 0.393 ± 0.068 kcal/mol | 0.0898 ± 0.26 kcal/mol |  |
| SAGGMTVTVPREGPVTEEDVEKIAAELAAQGLKEVPLVVIETEKGSLPDGRPTELVRERTYYYEYPESAGGS [r16_44_JUSTAS] | -0.307 ± 0.31 kcal/mol | < -1 kcal/mol |  |
| SAGGMYTLSEKTLPDGSKLLTVTRPDKPEEVFLPKEAENLPPETPVTTRGAGGEEVRPVAEILPPALLSAGG [r13_97_JUSTAS] | 0.257 ± 0.11 kcal/mol | -0.215 ± 0.18 kcal/mol |  |
| SAGGNYYPMEFRNPENNHEIRITVERDPPGMYRINIQIENPNGNQIPFPMTMPPDDFKPGDEFEIKIPSAGG [r13_959_TrROS] | 0.676 ± 0.16 kcal/mol | 0.213 ± 0.44 kcal/mol |  |
| SAGGQTIEIPNGITITYYPNNQVTITIRYPGRPLTVTSPYDSPEEAIDNIIEQAREMARPPPPKKKDDSAGG [r13_896_TrROS] | 0.633 ± 0.16 kcal/mol | 0.68 ± 0.41 kcal/mol |  |
| SAGGSADSVMIPVESPEEIKEELQEGPPKRVELPNPDGERYWIQIDWDDPENIEVMPPDDPEKMKPSAGGSA [r15_11_TrROS] | 0.716 ± 0.13 kcal/mol | 0.0877 ± 0.28 kcal/mol |  |
| SAGGSAEPPVKEIAEKLIKKSKKPIIATVVEKKKDGYLVTKVKYIPNTGKPIIKVKKITPEELKKKSAGGSA [r15_156_TrMRF] | 0.159 ± 0.097 kcal/mol | -0.785 ± 0.7 kcal/mol |  |
| SAGGSAGGSAGGSMTRVFVRKPDYWLEVEEYPDPKNPDRIRLTVKKKIPLSEVTPEELASAGGSAGGSAGGS [r4_316_JUSTAS] | -0.0403 ± 0.26 kcal/mol |  |  |
| SAGGSAGGSPRYQIPFEFPNGRNLYIQIERDPEEGQVKVDIMFPDGGTKEITVPPGEEIKIPWSAGGSAGGS [r12_922_TrROS] | -0.659 ± 0.62 kcal/mol |  |  |
| SSTTTTTTDPSGYTYSTTVTTHPDSTTTTTGRVTVEKVGDRPVARTTTTTTTVSPGGATTTTTSTTTTLPSA [r9_69_JUSTAS] |  | 0.0549 ± 0.082 kcal/mol | 0.589 ± 0.1 kcal/mol |
| SSVTLLVPVEVTLPTPEGKGPSVTRFVPVPVPEEELRERLIEELREELKKKGEPDVTEEELKDPEVLEELSA [r9_263_JUSTAS] |  | -0.0887 ± 0.18 kcal/mol | 0.51 ± 0.046 kcal/mol |
| STITDVEIYKMPPGEEYPFPNGRKIPPGDYMIYNEDNGHYMSADQIRRILQEIEQELEKLPPPKKPENDKSA [r9_517_TrROS] |  | -0.162 ± 0.43 kcal/mol | 0.251 ± 0.29 kcal/mol |
| VNPRTLTYDPVTNRIDAATPDGTPVTVTAGSSGYTATVTDPATGAPTVVPLTEAELAALEADPAFPLATSNS [r1_18_JUSTAS] |  | -0.115 ± 0.056 kcal/mol | 0.653 ± 0.057 kcal/mol |
